Results from US11938104B1, “Compositions and methods for prevention and treatment of coronavirus and related disorders” (Abrexa Pharmaceuticals, Inc., priority 2021, dated 2024).

Test system: Male SD rats
Assay: Thromboembolic MCAO, J147+tPA expanded study, 72 h (Example 4)
Assay type: in vivo, rat
Protocol: Objective: To determine whether J147 can prevent tPA-associated brain hemorrhage and extend the treatment time window of tPA in a clinically relevant thromboembolic stroke model in rats. • J147 compound: Stock solution: 60 mg/ml DMSO, in 60 ul/vial, stored at −20° C. • Working solution: 3 mg/ml in 5% DMSO, 70% PEG200 and 25% normal saline, prepared prior to injection. • One vial stock solution was warmed at 37° C. and mixed with 1140 ul sterilized solution (PEG200: saline, 2.8:1). • Recombinant human tPA (Alteplase, 2.2 mg/vial): Reconstituted with 1.1 ml water (2 mg/ml). 10 mg/kg, 10% bonus injection, 90% 30 min. via mini pump.
Methods: Male SD rats (280-300 g) were subjected to thromboembolic middle cerebral artery occlusion (MCAO) and treated with saline at 4 hours, tPA (tissue-type plasminogen activator; 10 mg/kg, IV) at 4 hours, and combined J147 (10 mg/kg, IV) plus tPA at 4 hours after onset of ischemia. Bederson score was examined prior to the sacrifice at 72 h after stroke. Infarct volumes, brain hemorrhage, and animal mortality were measured.
Conclusion: J147 plus tPA combination treatment attenuates tPA-associated hemorrhage and alleviates brain damage after eMCAO. Consequently, the use of J147 in combination with tPA may extend the length of the therapeutic window for administration of tPA following an ischemic event and thereby increase the number of stroke patients that could benefit from use of tPA. • J147 compound: Stock solution: 60 mg/ml DMSO, in 60 ul/vial, stored at −20° C. • Working solution: 3 mg/ml in 5% DMSO, 70% PEG200 and 25% normal saline, prepared prior to injection. One vial stock solution was warmed at 37° C. and mixed with 1140 ul sterilized solution (PEG200: saline, 2.8:1). • Recombinant human tPA (Alteplase, 2.2 mg/vial): Reconstituted with 1.1 ml water (2 mg/ml). 10 mg/kg, 10% bonus injection, 90% 30 min. via mini pump.

[1] = tPA 10 mg/kg IV, J147 10 mg/kg IV, at 4 hours after onset of ischemia, 72 h after stroke

B1: tPA: Recombinant human tPA (Alteplase); tissue plasminogen activator, thrombolytic approved by the FDA for the treatment of stroke (protein, UniProt P00750 36-562, looked up)
Tissue-type plasminogen …: SYQVICRDEKTQMIYQQHQSWLRPVLRSNRVEYCWCNSGRAQCHSVPVKSCSEPRCFNGGTCQQALYFSDFVCQCPEGFAGKCCEIDTRATCYEDQGISYRGTWSTAESGAECTNWNSSALAQKPYSGRRPDAIRLGLGNHNYCRNPDRDSKPWCYVFKAGKYSSEFCSTPACSEGNSDCYFGNGSAYRGTHSLTESGASCLPWNSMILIGKVYTAQNPSAQALGLGKHNYCRNPDGDAKPWCHVLKNRRLTWEYCDVPSCSTCGLRQYSQPQFRIKGGLFADIASHPWQAAIFAKHRRSPGERFLCGGILISSCWILSAAHCFQERFPPHHLTVILGRTYRVVPGEEEQKFEVEKYIVHKEFDDDTYDNDIALLQLKSDSSRCAQESSVVRTVCLPPADLQLPDWTECELSGYGKHEALSPFYSERLKEAHVRLYPSSRCTSQHLLNRTVTDNMLCAGDTRSGGPQANLHDACQGDSGGPLVCLNDGRMTLVGIISWGLGCGQKDVPGVYTKVTNYLDWIRDNMRP
With B1 the “brain hemorrhage / hemorrhagic transformation” value [1] was “worsened”, the “brain infarction / infarct volume” value [1] was “did not decrease” and the mortality rate (treatment at 4 h after onset of ischemia, log-rank test *p < 0.05 vs Saline or tPA alone group) was 32%. For the same molecule, the “Death (number of rats)” value (treatment at 4 h after onset of ischemia, tPA n = 22, J147 plus tPA n = 17) was 7.
